The target of test [1] is chimpanzee CD40 expressed on peripheral blood B cells (chimpanzee) (UniProt K7BNQ5). Put plainly: cell-based or functional assay.
Test [2] has as its target chimpanzee CD40 expressed on peripheral blood B cells (chimpanzee, UniProt K7BNQ5 21-277). The test is described as follows: cell-based or functional assay.
The next test has as its target T1, human CD40 (human, UniProt P25942 21-193, limits assumed).
T1 construct: CD40 as used in the BIACore assay; also called CD40 antigen
Put plainly: BIACore assay.

The results in this text go back to US20040109857A1 (Novartis, published 2004).

The term Kd denotes the equilibrium constant for the complex coming apart. Low values mean a tighter complex, high ones a looser complex.

Chain of chimpanzee CD40 expressed on peripheral blood B cells (chimpanzee) (K7BNQ5 entry or part of it limits assumed): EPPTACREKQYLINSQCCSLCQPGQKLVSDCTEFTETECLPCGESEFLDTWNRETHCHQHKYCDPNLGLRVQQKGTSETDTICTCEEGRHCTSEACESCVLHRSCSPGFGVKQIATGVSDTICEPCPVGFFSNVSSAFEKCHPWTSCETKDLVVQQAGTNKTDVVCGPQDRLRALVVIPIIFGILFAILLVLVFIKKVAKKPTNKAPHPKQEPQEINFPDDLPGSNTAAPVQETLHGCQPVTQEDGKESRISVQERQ
Chain of chimpanzee CD40 expressed on peripheral blood B cells (K7BNQ5 entry or part of it limits assumed): as above
T1 sequence (P25942 21-193 limits assumed): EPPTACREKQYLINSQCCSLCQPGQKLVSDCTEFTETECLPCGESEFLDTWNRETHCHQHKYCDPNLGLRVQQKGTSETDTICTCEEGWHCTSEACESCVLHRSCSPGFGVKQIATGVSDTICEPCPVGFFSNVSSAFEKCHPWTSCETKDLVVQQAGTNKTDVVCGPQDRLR

“human CD40L expressed on transfected cells (CHO cells; murine L-cells) (from UniProt P29965 1-261) (ligand)” registered a CD40L fold increase of proliferation over huIgG2 at 5 ug/ml; chimp PBMC, 1 sample in test [1] of 10.2 fold.

B1: 15B8, fully human anti-CD40 monoclonal antibody (antibody, human IgG2, V domains shown)
VH: QVQLQESGGGVVQPGRSLRLSCAASGFTFNNFGIHWVRQAPGKGLEWVAVISYDGSDKYYADSVKGRFTISRDNSKNTLNLQMNSLRAEDTAVYYCARDRRYYYHYYGMDVWGQGTMVTVSS
VL: DIVMTQSPLSLSVAPGQPASISCKSSQSLLESYGETYLYWYLQKPGQPPQLLIYAVFKRFSGVPDRFSGSGSGTDFTLKISRVEAEDVGVYYCMQSMQLPLTFGGGTKVEIK
notes: Human IgG2 isotype with human kappa light chain, from hybridoma 15B8 (Xenomouse); two heavy and two light chains, 1,284 residues in all; In one FACS format it was directly FITC-labelled; also called antagonist anti-CD40 antibody 15B8; 15B8 MAb
Consider B1, for which the “15B8 fold increase of proliferation over huIgG2; chimp PBMC, 1 sample, 15B8 5 ug/ml” value in test [2] was 2.46 fold. The affinity with human CD40, expressed as Kd, was 3.1 nM.
